Source: the supplement of paper PMC10057847, “Precision engineering of biological function with large-scale measurements and machine learning” (PLOS ONE, 2023)
± gives the uncertainty stated by the source.

B1: library; the commonest letter at each place (parent)
chain: MKPVTLYDVAEYAGVSYQTVSRVVNQASHVSAKTREKVEAAMAELNYIPNRVAQQLAGKQSLLIGVATSSLALHAPSQIVAAIKSRADQLGASVVVSMVERSGVEACKAAVHNLLAQRVSGLIINYPLDDQDAIAVEAACTNVPALFLDVSDQTPINSIIFSHEDGTRLGVEHLVALGHQQIALLAGPLSSVSARLRLAGWHKYLTRNQIQPIAEREGDWSAMSGFQQTMQMLNEGIVPTAMLVANDQMALGAMRAITESGLRVGADISVVGYDDTEDSSCYIPPLTTIKQDFRLLGQTSVDRLLQLSQGQAVKGNQLLPVSLVKRKTTLAPNTQTASPRALADSLMQLARQVSRLESGQ

Legend:
Conditions in all cases: with IPTG
IPTG [1] = variants of: B1
Protocol: (§1)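 LacI variants on the pVER plasmid regulate eYFP behind lacO in E. coli MG1655Δlac, grown in rich M9 at 37 °C with a 2-fold IPTG dilution series. After two 160-min growth steps, YFP is read by flow cytometry and calibrated to MEF. Bayesian MCMC fits of the Hill equation give G0, G∞, EC50 and n (posterior mean ± SD).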

IPTG [2] = variants of: B1; test: Hill coefficient n (dimensionless); higher = steeper dose response
Protocol: as §1

IPTG [3] = variants of: B1; test: basal output G0 (YFP, no IPTG) (log10 MEF); higher = higher reporter expression without inducer
Protocol: as §1

IPTG [4] = variants of: B1; test: saturating output G-infinity (YFP) (log10 MEF); higher = higher reporter expression at saturating IPTG
Protocol: as §1

MKPVTLYDVAEYAGVSYQTVSRVVNQASHVSAKTREKVEAAMAELNYIPNRVAQQLAGKQSLLIGVATSSLALHAPSQIVAAIKSRADQLGANVVVSMEERRGVEACKAAVHNLLAQRVSGLIINYPLDDQDAIAVEAACTNVPALFLDVSDQTPINSIIFSHEDGTRLGVEHLVALGHQQIALLAGPLSSVSARLRQAGWHKYLTRNQIQPIAEREGDWSAMSGFQQTMQMLNEGIVPTAMLVANDQMALGAMRAITEFGLRVGADISVVGYDDTEDSSCYIPPLTTIKQDFRLLGQTSVDRLLQLSQGQAVKGNQLLPVSLVKRKTTLAPNTQTSSPRALADSLMQLARQVSRLESGQ [S93N V99E S102R L198Q S260F A337S] was tested, and the “EC50 for IPTG (log10 µmol/L)” value (IPTG [1]) was 0.634 ± 0.024, the Hill coefficient n (IPTG [2]) was 1.31 ± 0.088 and the “basal output G0 (log10)” value (IPTG [3]) was 3.834 ± 0.012. For the same variant, the “saturating output G-infinity (log10)” value (IPTG [4]) was 4.443 ± 0.0046.

In the case of MKPVTLYDVAEYAGVSYQTVSRVVNQASHVSAKTREKVEAAMAELNYIPNRVAQQLAGKQSLLIGVATSSLALHAPSQIVAAIKSRADQLGASMVVSMVERSGVEACKAAVHNLLAQRVSGLIINYPLDDQDAIAVEAACTNVPALFLDVSDQTPINSIIFSHEDGTRLGVEHLVALGHQQIALLAGPLCSVSARLRLAAWHKYLTRNRIQPIAEREGDWSAMSGFQQTMQMLNEGIVPTAMLVANDQMALGAMRAITESGLHVGADISVVGYDDTEDSSCYIPPLTTIKQDFRLLGQTSVDRLLQLSQGQAVKGNLLLPVSLVKRKTTLAPNTQTASPRALADSLMQLARQVSRLESGQ [V94M S190C G200A Q209R R263H Q317L], the “EC50 for IPTG (log10 µmol/L)” value (IPTG [1]) is reported as 1.44 ± 0.025, the Hill coefficient n (IPTG [2]) is reported as 1.4 ± 0.072 and the “basal output G0 (log10)” value (IPTG [3]) is reported as 3.418 ± 0.023. For the same variant, the “saturating output G-infinity (log10)” value (IPTG [4]) was 4.454 ± 0.0086.

With MKPVTLYDVAEYAGVSYQTVSRVVNQASHVSAKTREKVEAAMAELNYIPNRVAQQLAGKQSLLIGVATSSLALHAPSQIVAAIKSRADQLDASAVVSMVEGSGVEACKAAVHNLLAQRVSGLIINYPLDDQDAIAVEAACTNVPALFLDVSDQTPINCIIFSHEDGMRLGVDHLVSLGHQQIALLAGPLSSVSARLRLAGWHKYLTRNQIQPIAEREGDWSAMSGYQQTMQMLNEGIVPTAMLVANDQMALGAMRAITESGLRVGADISVVGYDDSEDSSCYIPPLTTIKQDFRLLGQASVDRLLQLSQGQAVKGNQLLPVSLVKRKTTLAPNTQTASPRALADSLMQLARQVSRLESGQ [G91D V94A R101G S158C T167M E172D A176S F226Y T276S T299A] the “EC50 for IPTG (log10 µmol/L)” value (IPTG [1]) was 2.31 ± 0.027, the Hill coefficient n (IPTG [2]) was 1.25 ± 0.063 and the “basal output G0 (log10)” value (IPTG [3]) was 4.329 ± 0.0062. The “saturating output G-infinity (log10)” value (IPTG [4]) was 3.63 ± 0.0095.

MKPVTLYDVAEYAGVSYQTVSRVVNQASHVSAKTREKVEAAMAELNYIPNRVAQQLAGKQSLLIGVATSSLALHAPSQIVAAIKSRADQLGASLVVSMIERSGIEACKAAVHNLLAQRVSGLIINYPLDDQDAIAVEAACTNVPALFLDVSDQTPINSIIFSHEDGTRLGVEHLVALGHQQIALLAGPLSSVSARLRLAGWHKYLTRNQIQPIAEREGDWSAMSGFQQTMQMLNEGIVPTAMLVANDQMALGAMRAITESGLRVGADISVVGYDDTEDSSCYIPPLTTIKQDFRLLGQTSVDRLLQFSQGQAVKGNQLLPVSLVKRKTTLAPNTQTASPRALADSLMQLARQVSRLESGQ [V94L V99I V104I L307F] was tested, and the “EC50 for IPTG (log10 µmol/L)” value (IPTG [1]) was 1.47 ± 0.02, the Hill coefficient n (IPTG [2]) was 1.56 ± 0.1 and the “basal output G0 (log10)” value (IPTG [3]) was 2.75 ± 0.26. The “saturating output G-infinity (log10)” value (IPTG [4]) was 4.204 ± 0.0067.

MKPVTLYDVAEYAGVSYQTVSRVVNQASHVSAKTREKVEAAMAELNYIPNRVAQQLAGKQSLLIGVATSSLALHAPSQIVAAIKSRADQQGASVVVSMVEGSGVEACKAAVHNLLAQRVSGLIINYPLDDQDAIAVEAAGTNVPALFLDVSDQTPINSIIFSHEDGTRQGVEHLVALGHQQIALLAGPLSSVSARLRLAGWHKYLTRNQIQPIAEREGDWSAMSGFQQTMQMLNEGIVPTAMLVANDQMALGAMRAITESGLRVGADISVVGYDDTEDSSCYIPPLTTIIQDFRLLGQTSVDRLLQLSQGQAVKGNQLLPVSLVKRKTSLAPNTQTASPRALADSLMQLARQVSRLESGQ [L90Q R101G C140G L169Q K290I T329S] was tested, and the “EC50 for IPTG (log10 µmol/L)” value (IPTG [1]) was 1.57 ± 0.01, the Hill coefficient n (IPTG [2]) was 1.54 ± 0.041 and the “basal output G0 (log10)” value (IPTG [3]) was 3.06 ± 0.033. The “saturating output G-infinity (log10)” value (IPTG [4]) was 4.4822 ± 0.004.
